The source of these data is patent publication US6703364B2, “Thrombin generation inhibitors” (Cleveland State University, priority 2001, dated 2004).

In assay [1] the target is T1, prothrombinase (Homo sapiens, UniProt P00742).
T1 construct: purchased Haematologic Technologies, Inc
In words: fluorescent prothrombinase assay (DAPA; conversion of prothrombin to α-thrombin). The class given is biochemical. The note with it: for IC50: fluorescent assay, DAPA fluorescence, read-out: IC50 for inhibition of prothrombinase activity. From the text:
The assay used to obtain the data shown in FIG. 4 is a fluorescent assay that is described in Example 3 of this document. Briefly, the fluorescent assay, in contrast to the visual assay, measures only one reaction of the many necessary for formation of a blood clot. The fluorescent assay measures conversion of prothrombin to a-thrombin as catalyzed by prothrombinase. A fluorescent assay reaction contains prothrombin, factor Xa, factor Va and a preparation of phospholipid vesicles, which facilitate assembly of the aforementioned components into a functioning prothrombinase enzyme.
Each fluorescent assay also contains a fluorescent compound called dansylarginine-N-(3-ethyl-1,5-pentanediyl)amide (or DAPA for short). DAPA specifically binds to α-thrombin, the product of the prothrombinase reaction. Binding of DAPA by α-thrombin increases the fluorescence intensity of DAPA. In the case where no peptide inhibitor of prothrombinase is present in the reaction, high levels of α-thrombin are produced in the reaction, and DAPA fluorescence is high. When a peptide inhibitor of prothrombinase is present, little α-thrombin is produced in the reaction, and DAPA fluorescence is low. Therefore, by measuring DAPA fluorescence, the inhibitory ability of each peptide is determined.
The identity of reactions containing each peptide, as well as the reactions containing no peptide (labeled “Xa/Va”) or no peptide and no factor Va (labeled “Xa”) is shown on the x-axis of FIG. 4.
Activities of prothrombinase, as measured by DAPA fluorescence, are shown on the y-axis of FIG. 4. […] DAPA fluorescence in the absence of both peptide and factor Va (the bar labeled “APXa” in FIG. 4) is 9% of the APXa/Va activity, and is background fluorescence.
The fluorescence assay specifically measured the conversion of prothrombin to α-thrombin, one essential reaction of the many required for blood clotting (see FIG. 1). […]
The fluorescent properties of DAPA were contributed by the dansyl moiety. When bound to α-thrombin, the fluorescence intensity and lifetime of the dansyl moiety were increased three-fold. Therefore, in this assay, when prothrombinase activity was uninhibited, α-thrombin was produced (see FIG. 1) and DAPA fluorescence was high. When prothrombinase activity was inhibited, as in the presence of peptide prothrombinase inhibitors, α-thrombin was not produced and DAPA fluorescence was low.
In a typical assay, the final concentrations of reagents were as follows: prothrombin, 1.4 μM; factor Xa, 10 nM; factor Va, 1 nM; phospholipid vesicles, 20 μM; DAPA, 3 μM; peptide, 100 μM. […] After centrifugation to isolate the vesicles, the concentration of the vesicles was determined by phosphorus assay (Gomori, 1942, J Lab Clin Med, 27:955-60). […]

Assay [2] deals with T1, prothrombinase. Description: visual blood clotting assay (factor V-depleted plasma, thromboplastin, factor Va). It is filed as biochemical. The following applies: increasing peptide concentrations, as high as 250 μM. From the text:
FIG. 3 is a graph showing inhibition of prothrombinase activity by the 42 amino acid peptide NR42, encompassing amino acids 307-348 of the human factor Va heavy chain (SEQ ID NO. 2). The assay used to obtain the data shown in FIG. 3 is a visual blood clotting assay that is described in detail in Example 2 of this document.
Briefly, in the visual blood clotting assay, reactions are set up that contain all components of the blood necessary to form a blood clot and the time required for formation of a visual blood clot is recorded. To test inhibitory activity of the NR42 peptide, different concentrations of NR42 are added to a series of such reactions. […] The time required for an observable blood clot to form in the absence of NR42 peptide (0 μM peptide on the x-axis) is designated as 100% prothrombinase activity, as shown on the y-axis of FIG. 3. Inhibition of blood clotting by […] results in longer clotting times. Longer clotting times are shown on the y-axis of the graph as decreased prothrombinase activity. […]
Factor Va was purchased or, alternatively was produced by treatment of 50 nM of purified factor V (Haematologic Technologies, Inc.) with 1 nM α-thrombin for 10 min followed by the addition of 2 nM hirudin. […] This time was arbitrarily determined to be 100% activity. […]

For assay [3], the target named is prothrombinase (factor Xa plus factor Va) (human) (UniProt P00742).
Assay [4] addresses factor Xa (Homo sapiens (Human)) (UniProt P00742).
Where [5] appears, read: series of peptide concentrations.

Entries after “also recorded” stand apart in the source; their conditions may differ. Residues, ends and D or L forms follow the SMILES beside them. No end group written: not given here.

T1 sequence (P00742 41-179 limits assumed): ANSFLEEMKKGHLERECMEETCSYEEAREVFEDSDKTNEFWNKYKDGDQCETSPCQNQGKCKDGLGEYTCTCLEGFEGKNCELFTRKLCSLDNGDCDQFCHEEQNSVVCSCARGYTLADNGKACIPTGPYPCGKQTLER
T1 sequence (P00742 235-488 limits assumed): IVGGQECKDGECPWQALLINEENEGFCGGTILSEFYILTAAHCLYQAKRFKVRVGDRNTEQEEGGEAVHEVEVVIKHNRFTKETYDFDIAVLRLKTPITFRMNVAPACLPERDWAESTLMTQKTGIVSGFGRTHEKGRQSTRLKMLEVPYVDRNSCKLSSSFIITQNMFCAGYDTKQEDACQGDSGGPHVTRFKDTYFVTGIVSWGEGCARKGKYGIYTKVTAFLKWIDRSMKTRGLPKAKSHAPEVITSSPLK

For `CC[C@H](C)[C@H](NC(=O)[C@H](Cc1ccccc1)NC(=O)[C@H](Cc1ccc(O)cc1)NC(=O)[C@H](CCC(=O)O)NC(=O)[C@@H](N)Cc1c[nH]c2ccccc12)C(=O)N[C@@H](C)C(=O)N[C@@H](C)C(=O)N[C@@H](CCC(=O)O)C(=O)N[C@@H](CCC(=O)O)C(=O)N[C@H](C(=O)O)C(C)C` [AP4, Trp Glu Tyr Phe Ile Ala Ala Glu Glu Val] (H-WEYFIAAEEV-OH), the IC50 (in general, the concentration that gives 50% inhibition) at prothrombinase [1] (setting [5]) is around 5 µM.
On the same count and under the same terms, next, `CC[C@H](C)[C@H](N)C(=O)N[C@@H](Cc1c[nH]c2ccccc12)C(=O)N[C@@H](CC(=O)O)C(=O)N[C@@H](Cc1ccc(O)cc1)C(=O)N[C@@H](C)C(=O)N1CCC[C@H]1C(=O)N[C@H](C(=O)N[C@H](C(=O)N1CCC[C@H]1C(=O)N[C@@H](C)C(=O)O)[C@@H](C)CC)C(C)C` [AP6, Ile Trp Asp Tyr Ala Pro Val Ile Pro Ala] (H-IWDYAPVIPA-OH): around 30 µM.
As for “DR13: control peptide encompassing amino acids 697 to 709 of the factor Va heavy chain (DADSDYQDELALI)”, the “effect on blood clotting time and prothrombinase activity (in words)” value in the assay with prothrombinase [2] was “do not significantly affect blood clotting time and prothrombinase activity”; with prothrombinase [2] (listed as D13R), “did not inhibit prothrombinase activity”.
For EYFAE (peptide), the IC50, inhibition of prothrombinase, fluorescent assay (DAPA) in assay [3] was in the range of 10 to 15 µM.
“NMDKKYRSQH [AP8, 10 amino acid peptide adjacent to and overlapping AP9]”: the “prothrombinase activity relative to the no peptide reaction” value with prothrombinase [1] (100 μM peptide, no peptide reaction (Xa/Va) = 100%, remaining activity) is “approximately 80%”.
As to “P15H: 15 amino acid peptide encompassing amino acids 337-351 of human factor Va; used as negative control (PIIPANMDKKYRSLH) [Peptide P15H]”, in the assay with prothrombinase [1] (series of peptide concentrations, up to approximately 500 μM), the “inhibition of prothrombinase activity (in words)” value is recorded as “did not inhibit prothrombinase; also recorded: does not inhibit prothrombinase activity”.
factor Va (from UniProt P12259) displayed a prothrombinase activity by DAPA fluorescence, factor Xa with and without factor Va (% of the Xa/Va activity) in assay [4] of 9.
